Assay results from IntAct's records for PubMed 11565033.

B1: F-box/WD repeat-containing protein 7 (Drosophila melanogaster (Fruit fly)), Q9VZF4 (parent)
chain: MERGCPAASSESVTSAGERTQSAVTSSTSTWVKSQASTSRKTEASEESGLGAVDAEVGAGREAFVSMSTLREDVEDVCVSSNSQHGFAVVLDDESSTFEISSSNSLPTSAGAASTVGVVAVDDSSSTDTLNGGHPDLGHPASSEHSRQGFFNEDNEDPPVVCLINDDDDDEEPEPEEDDEEELIEDEDEDAVDIVTGAISCPNTSQLALADGTIMAADGSKIFLETPVVEEAQPHPGQVVTTGSQSELTGKPKRLSDEFLLGEEDQAENLALGRCIKSEPVNPVDDNPSEGDDGATCFSLHDRLMSVRLKQMSLTANTVSNPSPAASANAAAPEEASTSNSSSTSSSALSRADIESMDLIERRDFETEQRLTGGIILRTSSMVSQNKLNLSLIKSMAGGSKAANGSGTANSDDWPSSSNGRTVSSDSKYTYKDLSTTPTSSRKYTNSRLSKSTAKLNLGSSLGASSCSQHRSGSSSTSKSMESSTSCTGAARTDVYTNTNSNDYPSLAPTTSGSSTSGGSCQQDQEENVSASVSYSSVGSQTSQESGCSRTTAINPTAACSTGSACLGDSQASTSASTSSGAGASNRCQYATTSTTKAARQVNASAQTQERFLTRSNPPAASGAGSVGANPTASVRQRRNGSSDVVHLEVVVEEGAGGGDGGVVEPGDFSAEEPWANCDEENNCSDLEEICTCQNGNGSSYGGSNASLSETFDMDAMDPDEPISLSLSSASAGFTEYSLTNPSSLMSHQRKRKFNEGRLLDGGDYSVTISSSGEVGGPGSGVSDNCRKRIAYDFASTPRSSQHLGPTAVLSVTPSSHLTSSTPGSALGRRTPRSVPSRDNPPPELQHWLAQFQRWSHVERLLALDRLIDHCDPSQVRHMMKVIEPQFQRDFISLLPRELALFVLSYLEPKDLLRAAQTCRSWRFLCDDNLLWKEKCRKAQILAEPRSDRPKRGRDGNMPPIASPWKAAYMRQHIIEMNWRSRPVRKPKVLKGHDDHVITCLQFSGNRIVSGSDDNTLKVWSAVNGKCLRTLVGHTGGVWSSQMSGNIIISGSTDRTLKVWDMDSGACVHTLQGHTSTVRCMHLHGSKVVSGSRDATLRVWDIEQGSCLHVLVGHLAAVRCVQYDGKLIVSGAYDYMVKIWHPERQECLHTLQGHTNRVYSLQFDGLHVVSGSLDTSIRVWDVETGNCKHTLMGHQSLTSGMELRQNILVSGNADSTVKVWDITTGQCLQTLSGPNKHHSAVTCLQFNSRFVVTSSDDGTVKLWDVKTGDFIRNLVALDSGGSGGVVWRIRANDTKLICAVGSRNGTEETKLMVLDFDVEGACVKCS
partner: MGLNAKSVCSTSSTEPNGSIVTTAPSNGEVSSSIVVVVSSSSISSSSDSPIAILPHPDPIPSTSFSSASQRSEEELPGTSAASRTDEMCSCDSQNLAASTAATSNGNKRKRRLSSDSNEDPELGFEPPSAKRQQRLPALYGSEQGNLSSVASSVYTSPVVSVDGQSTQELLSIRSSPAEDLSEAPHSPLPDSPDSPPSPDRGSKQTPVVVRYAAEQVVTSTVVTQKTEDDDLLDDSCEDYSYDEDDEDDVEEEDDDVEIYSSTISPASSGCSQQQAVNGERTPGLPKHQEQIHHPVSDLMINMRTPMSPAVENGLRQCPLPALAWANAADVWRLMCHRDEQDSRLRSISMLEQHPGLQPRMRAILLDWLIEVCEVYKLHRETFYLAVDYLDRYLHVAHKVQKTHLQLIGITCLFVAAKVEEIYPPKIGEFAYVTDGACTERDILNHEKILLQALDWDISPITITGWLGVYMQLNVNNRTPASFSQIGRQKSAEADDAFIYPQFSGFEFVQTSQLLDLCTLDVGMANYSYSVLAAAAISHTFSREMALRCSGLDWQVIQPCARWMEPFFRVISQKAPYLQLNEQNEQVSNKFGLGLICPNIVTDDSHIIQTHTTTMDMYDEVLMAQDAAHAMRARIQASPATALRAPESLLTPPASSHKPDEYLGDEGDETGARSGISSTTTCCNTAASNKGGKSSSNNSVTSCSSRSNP

Variants of: B1
Conditions: with ccne_drome CycE

Row | effect of a mutation on the interaction | Variant
1 | decreasing interaction | G1131E
